What was measured:
[1] = tested on: HUVECs; assay: Total protein synthesis, 35S-methionine incorporation; assay type: cell-based, human; details: 4.5 μM; 24 hours of serum stimulation; rapamycin 100 ng/ml
Description: Primary human renal epithelial cells (HRE) were purchased from Clonetics (San Diego, Calif., USA) and were maintained in REGM (Clonetics Corp.). Other cell lines were obtained and maintained as described above. Cells were serum-starved for 24 hrs (0.5% FCS), stimulated with 10% FCS in the presence of T3 peptide, Tumstatin-44-131, endostatin or rapamycin for 12-24 hours. After pre-incubation of cells in methionine-free media for 1 hour, cells were labeled with ^35S-methionine for 1 hour and incorporation of radioactivity into trichloracetic acid precipitates was analyzed (Sudhakar, A. et al., 2000, Biochem. 39:12929-38; Maeshima, Y. et al., 1996, J. Amer. Soc. Nephrol. 7:2219-29). ANOVA with a one-tailed Student's t test was used to identify significant differences in multiple comparisons in the present study. A level of P<0.05 was considered statistically significant.

[2] = tested on: HPE cells; assay: Proliferation, methylene blue staining; assay type: cell-based, human
Description: In the methylene-blue staining method, 7000 cells were plated into each well of a 96-well plate, and treated as described above. Cells were then counted using the method of Oliver et al. (1989, J. Cell. Sci. 92:513-8). After 48 hours of treatment, all wells were washed with 100 μl of PBS, and the cells fixed with 10% formalin in neutral-buffered saline (Sigma Chemical Co., St. Louis, Mo., USA). The cells were then stained with 1% methylene blue (Sigma) in 0.01M borate buffer, pH 8.5. Wells were washed with 0.01M borate buffer, and the methylene blue extracted from the cells with 0.1N HCl/ethanol, and the absorbance measured in a microplate reader (Bio-Rad, Hercules, Calif., USA) at 655 nm. Polymyxin B (Sigma) at a final concentration of 5 μg/ml was used to inactivate endotoxin (Liu, S. et al., 1997, Clin. Biochem. 30:455-63).
Endothelial cell proliferation was performed by ^3H-thymidine incorporation or methylene blue staining as described above in Example 25. C-PAE cells (passages 2-4) were grown to confluence and kept contact inhibited for 48 hours. 786-O, PC-3 and WM-164 cells were used as non-endothelial controls, and were cultured as described in Example 25, above. HPE (human primary prostate epithelial cells) were cultured in keratinocyte-SFM supplemented with bovine pituitary and recombinant human EGF (Life Technologies/Gibco BRL, Gaithersburg, Md., USA). […]

[3] = tested on: Caspase-3 in C-PAE cells; assay: Caspase-3 assay; assay type: cell-based, bovine; details: 20 μg/ml Tumstatin; TNF-α positive control
[4] = tested on: MDA-MB435 tumors; assay: MDA-MB435 breast cancer carcinoma orthotopic model (Example 41); assay type: in vivo; details: 5 mg or 20 mg per kilogram
[5] = tested on: PC-3 cells; assay: MTT cell viability assay; assay type: cell-based, human; details: 0-50 μg/ml
Description: (§1) Cell viability was measured by MTT assay, as described above.
(§2) The effects of Tumstatin-44-131 and Tum-5-125-C-A on cell viability of C-PAE cells were not seen in control PC-3 and DU-145 cells, as shown in FIGS. 52C and 52D. […] The activity of Tumstatin-44-131 is therefore specific to endothelial cells.

[6] = tested on: DU-145 cells; assay: MTT cell viability assay; assay type: cell-based; details: 0-50 μg/ml
Description: as §1, §2

[7] = tested on: HEK 293 cells; assay: Proliferation of control cells, 3H-thymidine incorporation; assay type: cell-based, human; details: Canstatin doses up to 40 mg/ml
Description: Bovine calf […] endothelial (C-PAE) cells were grown to confluence in DMEM with 10% fetal calf serum (FCS) and kept contact inhibited for 48 hours. Cells were harvested by trypsinization (Life Technologies/Gibco BRL, Gaithersberg, Md., USA) at 37° C. for 5 minutes. A suspension of 12,500 cells in DMEM with 0.5% FCS was added to each well of a 24-well plate coated with 10 μg/ml fibronectin. The cells were incubated for 24 hours at 37° C. C. with 5% CO2 and 95% humidity. Medium was removed, and replaced with DMEM containing 0.5% FCS (unstimulated) or 10% FCS (stimulated and treated cells). 786-O, PC-3 and HEK 293 cells served as controls and were also grown to confluency, trypsinized and plated in the same manner. Cells were treated with concentrations of Canstatin or endostatin ranging from 0.025 to 40 mg/ml in triplicate. In thymidine incorporation experiments, all wells received […] of ^3H-thymidine at the time of treatment. After 24 hours, medium was removed and the wells were washed 3 times with PBS. Radioactivity was extracted with 1N NaOH and added to a scintillation vial containing 4 ml of ScintiVerse II (Fisher Scientific, Pittsburgh, Pa., USA) solution. Thymidine incorporation was measured using a scintillation counter.

[8] = tested on: PC-3 tumors; assay: PC-3 prostate tumor xenograft in SCID mice; assay type: in vivo; details: 10 mg/kg
Description: Human prostate adenocarcinoma cells (PC-3 cells) were harvested from culture and 2 million cells in sterile PBS were injected subcutaneously into 7- to 9-week-old male SCID mice. The tumors grew for approximately 4 weeks after which animals were divided into groups of 4 mice. […] The control group received equal volumes of PBS each day. At the start of treatment (day 0), the tumors ranged in volume from 88 mm^3 to 135 mm^3 for the control mice, and 108 mm^3 to 149 mm^3 for the Canstatin-treated mice. Each group contained five mice. […] Canstatin-treated (▪) tumors increased only marginally in size relative to controls (□).

B1: endostatin: tumor associated angiogenesis inhibitor used as comparator (protein, UniProt P39060 1572-1754, looked up)
Endostatin: HSHRDFQPVLHLVALNSPLSGGMRGIRGADFQCFQQARAVGLAGTFRAFLSSRLQDLYSIVRRADRAAVPIVNLKDELLFPSWEALFSGSEGPLKPGARIFSFDGKDVLRHPTWPQKSVWHGSDPNGRRLTESYCETWRTEAPSATGQASSLLGGRLLGQSAASCHHAYIVLCIENSFMTASK
modifications: Endostatin
[1]
  inhibition of protein synthesis: did not inhibit protein synthesis

B2: Tumstatin: NC1 domain of the α3 chain of type IV collagen, residues 1-244 (SEQ ID NO:10) (protein, listed as Homo sapiens)
chain: GLKGKRGDSGSPATWTTRGFVFTRHSQTTAIPSCPEGTVPLYSGFSFLFVQGNQRAHGQDLGTLGSCLQRFTTMPFLFCNVNDVCNFASRNDYSYWLSTPALMPMNMAPITGRALEPYISRCTVCEGPAIAIAVHSQTTDIPPCPHGWISLWKGFSFIMFTSAGSEGTGQALASPGSCLEEFRASPFLECHGRGTCNYYSNSYSFWLASLNPERMFRKPIPSTVKAGELEKIISRCQVCMKKRH
[2]
  effect on proliferation of HPE cells: no inhibitory effects
[3]
  fold increase in Caspase-3 activity: 1.6 fold

B3: Tum-1: residues 54 to 244 of Tumstatin, lacking the N-terminal 53 amino acids (SEQ ID NO:22) (protein)
chain: QRAHGQDLGTLGSCLQRFTTMPFLFCNVNDVCNFASRNDYSYWLSTPALMPMNMAPITGRALEPYISRCTVCEGPAIAIAVHSQTTDIPPCPHGWISLWKGFSFIMFTSAGSEGTGQALASPGSCLEEFRASPFLECHGRGTCNYYSNSYSFWLASLNPERMFRKPIPSTVKAGELEKIISRCQVCMKKRH
modifications: Tum-1 (Tumstatin N-53) (amino acids 54-244 of SEQ ID NO10)
[4]
  anti-tumor activity: substantial anti-tumor activity

B4: Tumstatin-44-131: residues 44 to 131 of full-length Tumstatin (SEQ ID NO:33) (protein)
chain: FSFLFVQGNQRAHGQDLGTLGSCLQRFTTMPFLFCNVNDVCNFASRNDYSYWLSTPALMPMNMAPITGRALEPYISRCTVCEGPAIAI
modifications: Tumstatin-45-132 (amino acids 45-132 of SEQ ID NO10)
[5]
  effect on viability of PC-3 cells: not seen
[6]
  effect on viability of DU-145 cells: not seen

B5: Canstatin: NC1 domain of the α2 chain of Type IV collagen (SEQ ID NO:6) (protein, listed as Homo sapiens)
chain: VSIGYLLVKHSQTDQEPMCPVGMNKLWSGYSLLYFEGQEKAHNQDLGLAGSCLARFSTMPFLYCNPGDVCYYASRNDKSYWLSTTAPLPMMPVAEDEIKPYISRCSVCEAPAIAIAVHSQDVSIPHCPAGWRSLWIGYSFLMHTAAGDEGGGQSLVSPGSCLEDFRATPFIECNGGRGTCHYYANKYSFWLTTIPEQSFQGSPSADTLKAGLIRTHISRCQVCMKNL
[7]
  effect on proliferation: No significant effect
[8]
  fractional tumor volume as % of vehicle only-injected mice: 55%
  fractional tumor volume, fold less than vehicle: 1.8 fold

— patent publication US7387779B2, “Anti-angiogenic proteins and fragments and methods of use thereof” (Beth Israel Deaconess Medical Center, priority 1998, dated 2008)
